According to the supplement of paper PMC10567573:

B1: NETO1 (parent)
chain: GFSPIIGRFCGQQNPPVIKSSGRF

Variants of: B1
Test: protein stability index of a GFP-peptide fusion (GPS, HEK-293T) (PSI 1-6); higher = more stable
Settings: c terminus: a fixed tail appended
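Note: lentivirally expressed fusions sorted by FACS into six bins by GFP to DsRed ratio, PSI derived from sequencing read proportions per bin multiplied by bin number.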

Protein stability index of substitutions, site by site:
I5: W 1.42; P 2.79; M 2.19; S 2.62; Q 2.52; N 2.34; T 2.36; L 2.17; Y 2.36; R 2.79; V 1.87
V17: T 2.05; D 2.75; K 2.5; C 1.62; W 2.42; Q 2.52; Y 2.12; F 1.66; H 2.08; M 2.88; P 2.22; I 2.51; L 1.66; E 2.54; A 2.04; R 2.23; G 2.62; N 2.5; S 2.3
I6: Q 2.38; C 2.11; W 2.68; A 2.1; R 3.09; Y 1.91; E 3.28; H 2.77; K 3.17; G 2.58; V 2.15; S 2.94; N 2.37; P 2.95; T 2.39; L 2.55; D 3.54; M 2.05; F 2.16
I18: C 2.65; F 1.95; D 2.73; S 2.65; N 3.43; A 2.7; P 2.92; Q 2.78; V 3.01; E 2.61; G 2.24; W 2.1; H 1.76; R 3.13; K 2.72; L 2.17; T 2.15; M 2.17; Y 2.43
Q13: M 2.3; H 1.88; A 1.83; P 2.31; R 2.64; G 1.89; T 3.12; F 1.75; S 1.63; E 2.22; N 2.31; D 1.96; Y 2.22; C 1.42; L 2.3; K 1.88; W 1.61; V 2.36; I 2.17
G11: H 1.91; Q 2.38; N 2.17; F 2.03; C 1.6; K 1.91; W 2.26; P 2.58; E 2.54; T 2.58; V 2.36; R 1.63; A 2.01; I 1.83; D 2.76; M 1.51; S 2.38; L 2.31; Y 1.89
G22: K 2.54; I 1.73; V 1.63; A 1.87; R 2.19; T 2.11; E 1.63; F 1.82; Q 2.35; M 1.65; W 2.14; L 2.81; D 2.06; H 1.59; Y 2.1; C 1.97; N 2.2; P 2.15; S 2
S21: C 2.42; A 2.88; L 1.75; K 2.22; N 2.09; G 2.53; V 2.15; Y 2.36; F 1.68; W 1.8; P 2.25; I 1.57; Q 2.08; D 1.82; H 2.06; R 2.26; E 2.22; T 2.36; M 2.18
C10: N 3.13; K 2.93; D 2.71; S 2.9; V 2.46; E 3.76; P 3.47; M 2.27; Q 2.4; Y 2.42; F 2.51; W 2.3; H 2.38; I 2.86; T 3.29; A 3.07; L 2.79; R 2.63; G 3.05
S20: N 2.45; D 1.55; A 2.67; M 1.66; G 1.9; Y 1.43; E 2.11; V 1.68; R 2.44; Q 2.67; P 2.45; I 1.58; C 2.18; K 2.65; W 1.99; L 2.59; H 2.16; T 1.88; F 2.26
Q12: E 2.35; R 1.78; D 2.53; G 2.26; L 1.75; C 2.32; Y 2.01; A 1.57; M 1.94; T 2.26; F 1.8; H 2.3; V 2.15; K 2.33; S 2.03; W 1.72; I 2.16; P 2.75; N 2.35
R23: D 2.3; A 1.35; C 1.44
P16: Q 1.69; R 2.32; I 1.86; N 1.73; Y 2.24; G 1.85; C 2.02; H 2.18; E 2.58; T 2.23; M 2.16; A 2.03; V 2.26; D 2.1; L 1.59; F 1.85; W 1.32; S 2.05; K 2.03
G7: N 2.38; M 1.56; R 2.25; L 1.85; K 1.89; P 1.65; T 2.47; V 1.83; I 2.88; A 1.73; Y 1.64; E 2.39; D 2.66; S 2.3; W 1.42; F 2.03; H 1.74
K19: Y 1.91; N 1.65; P 2.37; I 2.07; T 1.94; L 2.3; F 1.69; C 1.93; S 2.48; E 2.27; W 1.78; Q 1.42; H 1.64; A 2.27; R 1.85; M 2.58; V 1.48; D 2.26; G 3.23
P15: Q 1.96; E 2.27; L 2.59; C 2.19; F 2.34; N 2.52; M 1.99; K 1.99; R 1.65; D 2.4; V 2.14; W 2.13; Y 2.1; H 2.01; G 2.79; A 2.44; T 2.04; S 1.93; I 2.1
F9: L 2.49; N 2.42; A 2.87; Q 2.38; M 2.17; R 2.07; E 3.73; D 3.31; G 1.97; C 2.06; V 2.66; W 2.27; Y 1.98; K 2.49; I 2.45; P 1.95; H 1.69; T 1.75; S 1.98
N14: I 1.92; S 2.35; V 1.24; M 1.8; Q 3.08; R 2.12; K 2.04; P 2.21; A 2.25; W 1.87; D 2.48; H 2.18; Y 1.99; F 2.26; E 2.38; L 1.66; T 1.67; G 2.19
R8: W 1.93; C 1.61; L 1.83; T 2.18; D 2.63; M 1.76; I 2.43; K 2.19; A 2.72; P 2.61; V 2.23; N 2.04; Q 2.19; F 1.62; Y 1.83; E 3.19; H 1.79; S 2.05; G 2.16
